Paper PMC4652760

Assays:
[1] = target: Streptomyces coelicolor RNase J (SCO5745) (Streptomyces coelicolor); test: AUC; analytical ultracentrifugation, data not shown; conditions not given
[2] = target: Streptomyces coelicolor RNase J (SCO5745) (Streptomyces coelicolor); test: crystal structure; crystals from 27.5% w/v PEG 400, 0.1 M Tris-HCl pH 8.5, 18°C; co-purified RNA bound; space group P4(3)22, two protomers in the asymmetric unit; tetramer by crystallographic 2-fold symmetry

stoichiometry N [1]: 4
stoichiometry N [2]: 4
Substance: Streptomyces coelicolor RNase J (SCO5745) (enzyme)
